Reference: patent US20210246166A1 (Bayer, published 2021)
Numbered stars: 1 amine (or outer) side, 2 acyl side, 3 side chain; on linkers, the order of the positions; unused ones are H or OH. Bridge positions count the residues as written; N and C are the ends. Square brackets hold non-standard residues; d marks the D form. Ends that are not written are not given here. * marks the point of attachment. Freidinger's Lactam = (2S)-2-[(3R)-3-amino-2-oxopyrrolidin-1-yl]-4-methylpentanoic acid (Freidinger's lactam), CC(C)C[C@@H](C(=O)[*:2])N1CC[C@@H](N[*:1])C1=O; X13 = (2S)‑2‑amino‑3‑(1-methylcyclopropyl)propanoic acid, CC1(C[C@H](N[*:1])C(=O)[*:2])CC1; X15 = (3S)‑2‑azaspiro(4.4)nonane‑3‑carboxylic acid, O=C([C@@H]1CC2(CCCC2)CN1[*:1])[*:2]; X11 = (S)‑Piperidine‑3‑carboxylic acid, O=C([C@H]1CCCN([*:1])C1)[*:2]; X14 = (2,4-dioxoimidazolidin-1-yl)acetic acid, O=C1CN(CC(=O)*)C(=O)N1; (R)‑Pyrrolidine‑3‑acetic acid = O=C(C[C@H]1CCN([*:1])C1)[*:2]; Ida = iminodiacetic acid, O=C(CN(CC(=O)[*:3])[*:1])[*:2]; Pro(3S,4R-methano) = O=C(O)[C@H]1NC[C@@H]2C[C@@H]21; Pro(cis-4-CF3) = O=C(O)[C@@H]1C[C@H](C(F)(F)F)CN1; Pro(4-spirocPr) = O=C(O)[C@@H]1CC2(CC2)CN1; Nip(3R) = O=C([C@@H]1CCCN([*:1])C1)[*:2]; Oic = O=C(O)[C@@H]1C[C@@H]2CCCC[C@@H]2N1; βPro(3R) = O=C([C@@H]1CCN([*:1])C1)[*:2]; tBuAla = CC(C)(C)C[C@H](N)C(=O)O; Pen = CC(C)(S)[C@H](N)C(=O)O; Sar = CNCC(=O)O

T1: Recombinant human MASP1 enzyme (fragment corresponding to amino acids 297-699, C-terminal His Tag) (human, UniProt P48740 297-699)
T1 sequence: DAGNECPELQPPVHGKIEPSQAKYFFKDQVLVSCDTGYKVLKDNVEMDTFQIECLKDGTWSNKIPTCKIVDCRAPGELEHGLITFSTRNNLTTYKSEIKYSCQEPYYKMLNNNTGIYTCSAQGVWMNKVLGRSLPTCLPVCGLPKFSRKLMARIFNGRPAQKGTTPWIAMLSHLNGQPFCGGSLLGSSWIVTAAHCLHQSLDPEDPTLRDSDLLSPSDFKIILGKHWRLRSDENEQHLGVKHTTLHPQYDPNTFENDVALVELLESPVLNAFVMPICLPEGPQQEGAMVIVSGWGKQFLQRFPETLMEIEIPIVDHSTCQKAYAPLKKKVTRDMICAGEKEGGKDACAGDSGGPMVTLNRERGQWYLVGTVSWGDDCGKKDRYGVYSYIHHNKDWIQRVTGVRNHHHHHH


Assays:
[1] = biological target: Recombinant human MASP2 enzyme (fragment corresponding to amino acids 297-686, C-terminal His Tag) (human, UniProt O00187 297-686); assay: cell-based or functional assay
[2] = biological target: T1, Recombinant human MASP1 enzyme …; assay: cell-based or functional assay

Recombinant human MASP2 enzyme (fragment corresponding to amino acids 297-686, C-terminal His Tag), sequence (O00187 other isoform, or with tags, fused parts or gaps limits assumed): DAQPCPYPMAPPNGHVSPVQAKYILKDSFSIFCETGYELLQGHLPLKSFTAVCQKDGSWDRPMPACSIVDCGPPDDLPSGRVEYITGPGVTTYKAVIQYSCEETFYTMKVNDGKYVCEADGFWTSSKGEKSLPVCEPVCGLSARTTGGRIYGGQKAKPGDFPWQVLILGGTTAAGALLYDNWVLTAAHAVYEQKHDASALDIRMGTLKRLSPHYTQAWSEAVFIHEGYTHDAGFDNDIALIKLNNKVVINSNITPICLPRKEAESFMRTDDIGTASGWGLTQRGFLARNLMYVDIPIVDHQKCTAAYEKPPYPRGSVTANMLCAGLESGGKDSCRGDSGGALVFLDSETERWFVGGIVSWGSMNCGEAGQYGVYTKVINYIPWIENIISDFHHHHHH

human MASP2 IC50 [1] [nM]	human MASP1 IC50 [2] [nM]	Binder
200	4.3	[Nip(3R)]ICSRSLP[Oic]I[Pen]I-OH (disulfide 3-11; N-terminus assumed; SMILES CC[C@H](C)[C@H](NC(=O)[C@H]1NC(=O)[C@H]([C@@H](C)CC)NC(=O)[C@@H]2C[C@@H]3CCCC[C@@H]3N2C(=O)[C@@H]2CCCN2C(=O)[C@H](CC(C)C)NC(=O)[C@H](CO)NC(=O)[C@H](CCCNC(=N)N)NC(=O)[C@H](CO)NC(=O)[C@@H](NC(=O)[C@@H](NC(=O)[C@@H]2CCCNC2)[C@@H](C)CC)CSSC1(C)C)C(=O)O) [((R)-Piperidine-3-carboxylic acid)-IC+SRSLP-(Oic)-I-(Pen)+I-OH]
116	6.78	[Sar]ICSRSLP[Oic]I[Pen]IP[(R)‑Pyrrolidine‑3‑acetic acid]-OH (disulfide 3-11; N-terminus assumed; SMILES CC[C@H](C)[C@H](NC(=O)CNC)C(=O)N[C@H]1CSSC(C)(C)[C@@H](C(=O)N[C@H](C(=O)N2CCC[C@H]2C(=O)N2CC[C@H](CC(=O)O)C2)[C@@H](C)CC)NC(=O)[C@H]([C@@H](C)CC)NC(=O)[C@@H]2C[C@@H]3CCCC[C@@H]3N2C(=O)[C@@H]2CCCN2C(=O)[C@H](CC(C)C)NC(=O)[C@H](CO)NC(=O)[C@H](CCCNC(=N)N)NC(=O)[C@H](CO)NC1=O) [((N-Me)G)-IC+SRSLP-(Oic)-I-(Pen)+IP-((R)-Pyrrolidine-3-acetic acid)-OH]
261	17.1	[Sar]ICSRS[tBuAla]P[X15]I[Pen]IPD-OH (disulfide 3-11; N-terminus assumed; SMILES CC[C@H](C)[C@H](NC(=O)CNC)C(=O)N[C@H]1CSSC(C)(C)[C@@H](C(=O)N[C@H](C(=O)N2CCC[C@H]2C(=O)N[C@@H](CC(=O)O)C(=O)O)[C@@H](C)CC)NC(=O)[C@H]([C@@H](C)CC)NC(=O)[C@@H]2CC3(CCCC3)CN2C(=O)[C@@H]2CCCN2C(=O)[C@H](CC(C)(C)C)NC(=O)[C@H](CO)NC(=O)[C@H](CCCNC(=N)N)NC(=O)[C@H](CO)NC1=O) [((N-Me)G)-IC+SRS-((tBu)A)-P-((3S)-2-azaspiro[4.4]nonane-3-carboxylic acid)-I-(Pen)+IPD-OH]
45	17	X14-ICSRSLP[Oic]I[Pen]IPD-OH (disulfide 2-10; SMILES CC[C@H](C)[C@H](NC(=O)CN1CC(=O)NC1=O)C(=O)N[C@H]1CSSC(C)(C)[C@@H](C(=O)N[C@H](C(=O)N2CCC[C@H]2C(=O)N[C@@H](CC(=O)O)C(=O)O)[C@@H](C)CC)NC(=O)[C@H]([C@@H](C)CC)NC(=O)[C@@H]2C[C@@H]3CCCC[C@@H]3N2C(=O)[C@@H]2CCCN2C(=O)[C@H](CC(C)C)NC(=O)[C@H](CO)NC(=O)[C@H](CCCNC(=N)N)NC(=O)[C@H](CO)NC1=O) [((2,4-dioxoimidazolidin-1-yl)acetic acid)-IC+SRSLP-(Oic)-I-(Pen)+IPD-OH]
96	23	[Sar]ICSRSLP[Oic]I[Pen]IP[Freidinger's Lactam]-OH (disulfide 3-11; N-terminus assumed; SMILES CC[C@H](C)[C@H](NC(=O)CNC)C(=O)N[C@H]1CSSC(C)(C)[C@@H](C(=O)N[C@H](C(=O)N2CCC[C@H]2C(=O)N[C@@H]2CCN([C@@H](CC(C)C)C(=O)O)C2=O)[C@@H](C)CC)NC(=O)[C@H]([C@@H](C)CC)NC(=O)[C@@H]2C[C@@H]3CCCC[C@@H]3N2C(=O)[C@@H]2CCCN2C(=O)[C@H](CC(C)C)NC(=O)[C@H](CO)NC(=O)[C@H](CCCNC(=N)N)NC(=O)[C@H](CO)NC1=O) [((N-Me)G)-IC+SRSLP-(Oic)-I-(Pen)+IP-(Freidinger's Lactam)-OH]
22	4.4	[dA]ICSRS[tBuAla]P[Pro(4-spirocPr)]I[Pen]IPD-OH (disulfide 3-11; N-terminus assumed; SMILES CC[C@H](C)[C@H](NC(=O)[C@@H](C)N)C(=O)N[C@H]1CSSC(C)(C)[C@@H](C(=O)N[C@H](C(=O)N2CCC[C@H]2C(=O)N[C@@H](CC(=O)O)C(=O)O)[C@@H](C)CC)NC(=O)[C@H]([C@@H](C)CC)NC(=O)[C@@H]2CC3(CC3)CN2C(=O)[C@@H]2CCCN2C(=O)[C@H](CC(C)(C)C)NC(=O)[C@H](CO)NC(=O)[C@H](CCCNC(=N)N)NC(=O)[C@H](CO)NC1=O) [aIC+SRS-((tBu)A)-P-((6S)-5-Azaspiro[2.4]heptane-6-carboxylic acid)-I-(Pen)+IPD-OH]
24	4.4	[dA]ICSRS[tBuAla]P[Pro(4-spirocPr)]I[Pen]IP[dE]-OH (disulfide 3-11; N-terminus assumed; SMILES CC[C@H](C)[C@H](NC(=O)[C@@H](C)N)C(=O)N[C@H]1CSSC(C)(C)[C@@H](C(=O)N[C@H](C(=O)N2CCC[C@H]2C(=O)N[C@H](CCC(=O)O)C(=O)O)[C@@H](C)CC)NC(=O)[C@H]([C@@H](C)CC)NC(=O)[C@@H]2CC3(CC3)CN2C(=O)[C@@H]2CCCN2C(=O)[C@H](CC(C)(C)C)NC(=O)[C@H](CO)NC(=O)[C@H](CCCNC(=N)N)NC(=O)[C@H](CO)NC1=O) [aIC+SRS-((tBu)A)-P-((6S)-5-Azaspiro[2.4]heptane-6-carboxylic acid)-I-(Pen)+IPe-OH]
260	3.8	[Sar]ICSRSLP[Oic]I[Pen]IPDK-OH (disulfide 3-11; N-terminus assumed; SMILES CC[C@H](C)[C@H](NC(=O)CNC)C(=O)N[C@H]1CSSC(C)(C)[C@@H](C(=O)N[C@H](C(=O)N2CCC[C@H]2C(=O)N[C@@H](CC(=O)O)C(=O)N[C@@H](CCCCN)C(=O)O)[C@@H](C)CC)NC(=O)[C@H]([C@@H](C)CC)NC(=O)[C@@H]2C[C@@H]3CCCC[C@@H]3N2C(=O)[C@@H]2CCCN2C(=O)[C@H](CC(C)C)NC(=O)[C@H](CO)NC(=O)[C@H](CCCNC(=N)N)NC(=O)[C@H](CO)NC1=O) [((N-Me)G)-IC+SRSLP-(Oic)-I-(Pen)+IPDK-OH]
65	7.5	[dP]ICSRSLP[Oic]I[Pen]IP[Ida]-OH (disulfide 3-11; also: HCl salt) [pIC+SRSLP-(Oic)-I-(Pen)+IP-(Ida)-OH (HCl salt)]
140	8.2	[X11]ICSRSLP[Oic]I[Pen]I-OH (disulfide 3-11; N-terminus assumed; SMILES CC[C@H](C)[C@H](NC(=O)[C@H]1NC(=O)[C@H]([C@@H](C)CC)NC(=O)[C@@H]2C[C@@H]3CCCC[C@@H]3N2C(=O)[C@@H]2CCCN2C(=O)[C@H](CC(C)C)NC(=O)[C@H](CO)NC(=O)[C@H](CCCNC(=N)N)NC(=O)[C@H](CO)NC(=O)[C@@H](NC(=O)[C@@H](NC(=O)[C@H]2CCCNC2)[C@@H](C)CC)CSSC1(C)C)C(=O)O) [((S)-Piperidine-3-carboxylic acid)-IC+SRSLP-(Oic)-I-(Pen)+I-OH]
210	5.1	AICSRSLP[Oic]I[Pen]IP[βDap]-OH (disulfide 3-11; also: C-terminal Dap bonded through its side-chain amino group) [AIC+SRSLP-(Oic)-I-(Pen)+IP-(*Dap)-OH]
230	20	[Sar]ICSRS[X13]P[Oic]I[Pen]IPD-OH (disulfide 3-11; N-terminus assumed; SMILES CC[C@H](C)[C@H](NC(=O)CNC)C(=O)N[C@H]1CSSC(C)(C)[C@@H](C(=O)N[C@H](C(=O)N2CCC[C@H]2C(=O)N[C@@H](CC(=O)O)C(=O)O)[C@@H](C)CC)NC(=O)[C@H]([C@@H](C)CC)NC(=O)[C@@H]2C[C@@H]3CCCC[C@@H]3N2C(=O)[C@@H]2CCCN2C(=O)[C@H](CC2(C)CC2)NC(=O)[C@H](CO)NC(=O)[C@H](CCCNC(=N)N)NC(=O)[C@H](CO)NC1=O) [((N-Me)G)-IC+SRS-((2S)-2-amino-3-(1-methylcyclopropyl)propanoic acid)-P-(Oic)-I-(Pen)+IPD-OH]
1000	7.8	AICSRS[tBuAla]P[Pro(cis-4-CF3)]ICIPD-OH (disulfide 3-11; N-terminus assumed; SMILES CC[C@H](C)[C@H](NC(=O)[C@H](C)N)C(=O)N[C@H]1CSSC[C@@H](C(=O)N[C@H](C(=O)N2CCC[C@H]2C(=O)N[C@@H](CC(=O)O)C(=O)O)[C@@H](C)CC)NC(=O)[C@H]([C@@H](C)CC)NC(=O)[C@@H]2C[C@H](C(F)(F)F)CN2C(=O)[C@@H]2CCCN2C(=O)[C@H](CC(C)(C)C)NC(=O)[C@H](CO)NC(=O)[C@H](CCCNC(=N)N)NC(=O)[C@H](CO)NC1=O) [AIC+SRS-((tBu)A)-P-((4-CF3)P)-IC+IPD-OH]
166	28	[Sar]ICSRSLP[Oic]I[Pen]IP[βPro(3R)]-OH (disulfide 3-11; N-terminus assumed; SMILES CC[C@H](C)[C@H](NC(=O)CNC)C(=O)N[C@H]1CSSC(C)(C)[C@@H](C(=O)N[C@H](C(=O)N2CCC[C@H]2C(=O)N2CC[C@@H](C(=O)O)C2)[C@@H](C)CC)NC(=O)[C@H]([C@@H](C)CC)NC(=O)[C@@H]2C[C@@H]3CCCC[C@@H]3N2C(=O)[C@@H]2CCCN2C(=O)[C@H](CC(C)C)NC(=O)[C@H](CO)NC(=O)[C@H](CCCNC(=N)N)NC(=O)[C@H](CO)NC1=O) [((N-Me)G)-IC+SRSLP-(Oic)-I-(Pen)+IP-((R)-Pyrrolidine-3-carboxylic acid)-OH]
104	6.6	[Sar]ICSRS[tBuAla]P[Pro(3S,4R-methano)]I[Pen]IPD-OH (disulfide 3-11; N-terminus assumed; SMILES CC[C@H](C)[C@H](NC(=O)CNC)C(=O)N[C@H]1CSSC(C)(C)[C@@H](C(=O)N[C@H](C(=O)N2CCC[C@H]2C(=O)N[C@@H](CC(=O)O)C(=O)O)[C@@H](C)CC)NC(=O)[C@H]([C@@H](C)CC)NC(=O)[C@@H]2[C@H]3C[C@H]3CN2C(=O)[C@@H]2CCCN2C(=O)[C@H](CC(C)(C)C)NC(=O)[C@H](CO)NC(=O)[C@H](CCCNC(=N)N)NC(=O)[C@H](CO)NC1=O) [((N-Me)G)-IC+SRS-((tBu)A)-P-((1S,2S,5R)-3-azabicyclo[3.1.0]hexane-2-carboxylic acid)-I-(Pen)+IPD-OH]
